Test results taken from PMC8363748, “The conformational stability of pro-apoptotic BAX is dictated by discrete residues of the protein core” (Nature Communications, 2021).

B1: N-His6-GFP-BAX α2–α5 (53–128), C62S/C126S (domain or fragment, human, UniProt Q07812 53-128, looked up)
chain: DASTKKLSESLKRIGDELDSNMELQRMIAAVDTDSPREVFFRVAADMFSDGNFNWGRVVALFYFASKLVLKALSTK
notes: BAX α2–α5 truncate, residues 53–128, human; also called BAX α2–α5 WT; wild-type BAX α2–α5; source: E. coli, purified (Ni-NTA, SEC Superdex S-200); not shown: His6, N-terminal, kept; GFP, N-terminal, kept
B2: GFP-BAX α2–α5 F116A (domain or fragment, human, UniProt Q07812 53-128, looked up)
chain: DASTKKLSESLKRIGDELDSNMELQRMIAAVDTDSPREVFFRVAADMFSDGNFNWGRVVALFYAASKLVLKALSTK
notes: BAX α2–α5 truncate, residues 53–128, human; source: E. coli, purified (Ni-NTA, SEC Superdex S-200); not shown: His6, N-terminal, kept; GFP, N-terminal, kept
B3: GFP-BAX α2–α5 L113A/Y115A (domain or fragment, human, UniProt Q07812 53-128, looked up)
chain: DASTKKLSESLKRIGDELDSNMELQRMIAAVDTDSPREVFFRVAADMFSDGNFNWGRVVAAFAFASKLVLKALSTK
notes: BAX α2–α5 truncate, residues 53–128, human; also called double alanine mutant; source: E. coli, purified (Ni-NTA, SEC Superdex S-200); not shown: His6, N-terminal, kept; GFP, N-terminal, kept
B4: GFP-BAX α2–α5 F114A/Y115A (domain or fragment, human, UniProt Q07812 53-128, looked up)
chain: DASTKKLSESLKRIGDELDSNMELQRMIAAVDTDSPREVFFRVAADMFSDGNFNWGRVVALAAFASKLVLKALSTK
notes: as for B3
B5: GFP-BAX α2–α5 L113A/F114A (domain or fragment, human, UniProt Q07812 53-128, looked up)
chain: DASTKKLSESLKRIGDELDSNMELQRMIAAVDTDSPREVFFRVAADMFSDGNFNWGRVVAAAYFASKLVLKALSTK
notes: as for B3
B6: GFP-BAX α2–α5 L113A/F116A (domain or fragment, human, UniProt Q07812 53-128, looked up)
chain: DASTKKLSESLKRIGDELDSNMELQRMIAAVDTDSPREVFFRVAADMFSDGNFNWGRVVAAFYAASKLVLKALSTK
notes: as for B3
B7: GFP-BAX α2–α5 L113A/Y115A/F116A (domain or fragment, human, UniProt Q07812 53-128, looked up)
chain: DASTKKLSESLKRIGDELDSNMELQRMIAAVDTDSPREVFFRVAADMFSDGNFNWGRVVAAFAAASKLVLKALSTK
notes: BAX α2–α5 truncate, residues 53–128, human; also called triple alanine mutant L113A/Y115A/F116A; source: E. coli, purified (Ni-NTA, SEC Superdex S-200); not shown: His6, N-terminal, kept; GFP, N-terminal, kept
B8: GFP-BAX α2–α5 F114A/Y115A/F116A (domain or fragment, human, UniProt Q07812 53-128, looked up)
chain: DASTKKLSESLKRIGDELDSNMELQRMIAAVDTDSPREVFFRVAADMFSDGNFNWGRVVALAAAASKLVLKALSTK
notes: BAX α2–α5 truncate, residues 53–128, human; also called triple alanine mutant F114A/Y115A/F116A; source: E. coli, purified (Ni-NTA, SEC Superdex S-200); not shown: His6, N-terminal, kept; GFP, N-terminal, kept
B9: GFP-BAX α2–α5 L113A (domain or fragment, human, UniProt Q07812 53-128, looked up)
chain: DASTKKLSESLKRIGDELDSNMELQRMIAAVDTDSPREVFFRVAADMFSDGNFNWGRVVAAFYFASKLVLKALSTK
notes: as for B2
B10: GFP-BAX α2–α5 F114A (domain or fragment, human, UniProt Q07812 53-128, looked up)
chain: DASTKKLSESLKRIGDELDSNMELQRMIAAVDTDSPREVFFRVAADMFSDGNFNWGRVVALAYFASKLVLKALSTK
notes: as for B2
B11: GFP-BAX α2–α5 Y115A (domain or fragment, human, UniProt Q07812 53-128, looked up)
chain: DASTKKLSESLKRIGDELDSNMELQRMIAAVDTDSPREVFFRVAADMFSDGNFNWGRVVALFAFASKLVLKALSTK
notes: as for B2
B12: GFP-BAX α2–α5 L113A/F114A/F116A (domain or fragment, human, UniProt Q07812 53-128, looked up)
chain: DASTKKLSESLKRIGDELDSNMELQRMIAAVDTDSPREVFFRVAADMFSDGNFNWGRVVAAAYAASKLVLKALSTK
notes: BAX α2–α5 truncate, residues 53–128, human; also called triple BAX α2–α5 mutant L113A/F114A/F116A; source: E. coli, purified (Ni-NTA, SEC Superdex S-200); not shown: His6, N-terminal, kept; GFP, N-terminal, kept
B13: GFP-BAX α2–α5 F114A/F116A (domain or fragment, human, UniProt Q07812 53-128, looked up)
chain: DASTKKLSESLKRIGDELDSNMELQRMIAAVDTDSPREVFFRVAADMFSDGNFNWGRVVALAYAASKLVLKALSTK
notes: as for B3
B14: GFP-BAX α2–α5 L113A/F114A/Y115A (domain or fragment, human, UniProt Q07812 53-128, looked up)
chain: DASTKKLSESLKRIGDELDSNMELQRMIAAVDTDSPREVFFRVAADMFSDGNFNWGRVVAAAAFASKLVLKALSTK
notes: BAX α2–α5 truncate, residues 53–128, human; also called triple BAX α2–α5 mutant L113A/F114A/Y115A; source: E. coli, purified (Ni-NTA, SEC Superdex S-200); not shown: His6, N-terminal, kept; GFP, N-terminal, kept
B15: GFP-BAX α2–α5 Y115A/F116A (domain or fragment, human, UniProt Q07812 53-128, looked up)
chain: DASTKKLSESLKRIGDELDSNMELQRMIAAVDTDSPREVFFRVAADMFSDGNFNWGRVVALFAAASKLVLKALSTK
notes: as for B3

Biological target: the molecule itself
Test: SEC; N-His6-GFP-BAX α2–α5 proteins, Superdex S-200, TBS; the dimer is observed as a GFP-mediated dimer/oligomer of dimers

Binding result, binds:
B1
B2
B3
B4
B5
B6
B7
B8
B9
B10
B11
B12
B13
B14
B15
